Measurements taken from patent US20220177567A1 (WASHINGTON UNIVERSITY, published 2022).

Legend:
[1] = biological target: T1, human IL12Rβ1 (native, on human primary cells) (human, UniProt P42701 24-662); assay: summary statement; no affinity method or value given
T1 construct: whole, on cells; Endogenous receptor on human tonsil ILC3 and peripheral blood lymphocytes; also called CD212; interleukin 12 receptor subunit beta 1

[2] = biological target: T2, human FLAG-tagged IL12Rβ1 expressed on EL-4 cells (human, UniProt P42701 24-662); assay: flow cytometry, hybridoma supernatant followed by anti-mouse IgG PE
T2 construct: whole, on cells; EL-4 cell line transduced with a construct encoding human FLAG-tagged IL12Rβ1; also called EL-4-human IL-12Rβ1 cells; human IL12Rβ1; not shown: FLAG tag
Description: EL-4-human IL-12Rβ1 cell line: The EL-4 cell line was transduced with a construct encoding the human FLAG-tagged IL12Rβ1 Flow cytometry: EL-4-human IL-12Rβ1 cells were stained with supernatants from different hybridoma clones followed by anti-mouse IgG Pe. Staining was compared with that obtained with anti-FLAG Tag followed by anti-mouse IgG Pe. Hybridoma clones staining the same percentage of cells stained by anti-FLAG Tag were selected and further tested in primary cells (FIG. 2).

- binding result [1]: binds
- binding result [2]: binds
B1: 1G6 anti-IL12Rβ1 monoclonal antibody (antibody, V domains shown)
VH: RVQLQQSGAELAKPGASVRLSCMASGYTFTSYWMHWVKQRPGQGLEWIGYIDPNNGYTKYSQKFKDKATLTADKSSSTANMRLSSLTYEDSAVYYCVRGGEIYYFDYWGQGTTLTVSS
VL: DIQMTQSPSSLSASLGGKVTITCKASQDIYKYIAWYQHKPGKGPRLLIHYTSTLQPGIPSRFSGSGSGRDYSFSISDLEPEDIATYYCLQYDNILWTFGGGTKLEIKR
notes: Hybridoma monoclonal antibody, detected with anti-mouse IgG PE; Tested as hybridoma supernatant and also in biotinylated form; also called IG6; mab (1 G6)
